Assay results as given in patent publication US20170058021A1 (SHANGHAI PULMONARY HOSPITAL, published 2017).

B1: human lung tissue nanobody Nb17 (VHH)
VHH: MQAQLAVQLQLVESGGGLVQPGGSLRLACAASGFNLDDYADIGWFRQAPGKERERVLCITISDGTTYYEDSGKGRFSISTDIAKNTVFLQMDSLKAEDTAVYYCAGDPAPFCLYNTYVPRTWGQGTQVTVSSAHHSEDPGPRGLAAAGAPVPYPDPLEPRAA
notes: also called No. 17
B2: human lung tissue nanobody Nb11 (VHH)
VHH: MQAQLAGQLQLVESGGGLVQPGGSLRLSCTASKFHLDSYAVAWFRQTPGKEREAVSFINTSDDVTYFADSVKGRFTISRDNSKNTVYLQMNVLKPEDTSIYVCAAVRSPGPTGPSMQPMWVPDLYDYWGQGTQVTVSSAHHSEDPGPRGLAAAGAPVPYPDPLEPRAA
B3: human lung tissue nanobody Nb15 (VHH)
VHH: MQAQLAGQLQLVESGGGLVQPGGSLSVSCAVRGRDLDYYVIGWFRQAPGKEREGVSCINNSDDTTYYSDSVKGRFTISRDHAKNTVYLQMNNLKPEDTALYYCAADFDRLDFTVKAMCVMKFFYYWGQGTQVTVSSEPKTPKPQGPRGLAAAGAPVPYPDLEPRAA
B4: human lung tissue nanobody Nb43 (VHH)
VHH: MQAQLAVQLQLVESGGGLVQSGGSLRLSCAASGFTFNDYRMSWVRQAPGKGLEWVSDINSGGSSTYYADSVKGRFTVSRDNAKNTLYLQMNSLKPEDTAIYYCVALLGRGCSGLVQGAFGPWGQGTQVTVSSAHHSEDPGPRGLAAAGAPVPYPDPLEPRAA

These binders were tested against T1, human pulmonary surfactant protein A (hSP-A) (human, UniProt Q8IWL2 21-248) (assay: ELISA with purified nanobody).
T1 construct: Native material from ground human lung tissue (supernatant of the lysate, called 'purified hSP-A'); It may hold both SP-A1 and SP-A2 gene products; also called human lung SP-A
T1 sequence (Q8IWL2 21-248 limits assumed): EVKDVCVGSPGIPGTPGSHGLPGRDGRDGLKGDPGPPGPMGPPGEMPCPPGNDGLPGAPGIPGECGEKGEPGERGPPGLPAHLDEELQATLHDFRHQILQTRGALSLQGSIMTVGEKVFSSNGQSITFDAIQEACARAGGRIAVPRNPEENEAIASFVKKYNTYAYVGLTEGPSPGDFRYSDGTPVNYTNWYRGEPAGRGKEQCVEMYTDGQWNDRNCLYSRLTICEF

OD450 relative to negative control | Binder
2 times the negative control | B1
2 times the negative control | B2
2 times the negative control | B3
2 times the negative control | B4

Each binder was assayed against T1, human pulmonary surfactant protein A … (assay: indirect phage ELISA, plate coated with hSP-A, OD 450 nm).

affinity value relative to negative control | Binder
3 times the negative control | B1
3 times the negative control | B2
3 times the negative control | B3
3 times the negative control | B4
